Square brackets hold non-standard residues; d marks the D form. Ends that are not written are not given here. 2Thi = N[C@@H](Cc1cccs1)C(=O)O; Nva = CCC[C@H](N)C(=O)O
Experiments:
BACE [1] = molecular target: T1, BACE (Homo sapiens, UniProt P56817); assay: Evaluation of peptides as BACE substrates (percent cleavage by LC-MS); type: biochemical; conditions: 10 hr incubation with BACE enzyme, determined by LC-MS
Protocol: In order to evaluate a range of peptide amino acid sequences as BACE substrates for the probes, the peptides shown below in Table II were incubated with BACE enzyme under conditions suitable for enzyme activity and the percent cleavage after 10 hr was determined by LC-MS. Thus, in addition to SEQ ID NO: 1 present in β-MAP, the peptide sequences corresponding to SEQ ID NO's: 2-6 and 10-11 can also be useful as BACE substrates in the BACE probes of the present disclosure. For example, the specific BACE substrate sequence can be chosen based on the level of cleavage desired for a particular use for which the probe will be utilized. In can be envisioned that a higher or a lower amount of BACE probe cleavage could be desirable based on the different uses of the BACE probes.

BACE [2] = molecular target: T1, BACE; conditions: compared to wild type; cited from earlier work

T1 sequence (P56817 46-501): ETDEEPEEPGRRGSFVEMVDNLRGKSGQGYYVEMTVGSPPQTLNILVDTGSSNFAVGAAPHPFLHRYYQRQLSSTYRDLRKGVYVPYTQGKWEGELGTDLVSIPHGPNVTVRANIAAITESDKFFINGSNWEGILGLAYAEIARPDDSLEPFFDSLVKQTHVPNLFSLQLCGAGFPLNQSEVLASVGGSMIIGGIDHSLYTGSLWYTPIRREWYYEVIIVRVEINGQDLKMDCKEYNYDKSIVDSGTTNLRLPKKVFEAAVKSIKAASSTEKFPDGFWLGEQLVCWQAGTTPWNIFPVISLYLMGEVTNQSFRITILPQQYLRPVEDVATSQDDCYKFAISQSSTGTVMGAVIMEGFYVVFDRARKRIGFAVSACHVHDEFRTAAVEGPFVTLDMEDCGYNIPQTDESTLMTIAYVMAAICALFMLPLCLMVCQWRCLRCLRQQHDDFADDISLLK

For “EI(Thi)(Thi)-(Nva)AHF (EI[2Thi][2Thi][Nva]AHF) [BACE substrate polypeptide with unnatural amino acids thienyl and norvaline]”, the “Percent Cleavage after 10 hr Incubation with BACE” value (from here on “Percent Cleavage”) (BACE [1]) was 25%.
In the case of “EVNF-EVEF (EVNFEVEF) [BACE substrate polypeptide]”, the “Percent Cleavage” value (BACE [1]) is reported as 85%.
In the case of “DETL-DAHF (DETLDAHF) [peptide evaluated as BACE substrate]”, the “Percent Cleavage” value (BACE [1]) is reported as 1%.
For “EVNL-DAEF (EVNLDAEF) [BACE substrate polypeptide]”, the “Percent Cleavage” value (BACE [1]) was 50%.
For “APSL-DAHF (APSLDAHF) [peptide evaluated as BACE substrate]”, the “Percent Cleavage” value (BACE [1]) was 0.5%.
For “EVNL-DAHF (EVNLDAHF) [BACE substrate polypeptide]”, the “Percent Cleavage” value (BACE [1]) was 50%.
In the case of “Swedish mutant APP: amyloid precursor protein with the Swedish mutation”, the “increase in Kcat/KM” value (BACE [2]) is given as 60 fold.
In the case of “EVNL-SSHD (EVNLSSHD) [BACE substrate polypeptide]”, the “Percent Cleavage” value (BACE [1]) is reported as 3.5%.
With “EIDL-SSHD (EIDLSSHD) [BACE substrate polypeptide]” the “Percent Cleavage” value (BACE [1]) was 5%.
In the case of “ASNL-DAHF (ASNLDAHF) [peptide evaluated as BACE substrate]”, the “Percent Cleavage” value (BACE [1]) is reported as “Not Detected”.
With “EIDL-MVLD (EIDLMVLD) [BACE substrate polypeptide]” the “Percent Cleavage” value (BACE [1]) was 20%.

— patent US8859223B1, “Compositions and methods for imaging beta-secretase activity in living cells and organisms” (Duke University, priority 2012, dated 2014)
